Measurements reported in the supplement of paper PMC11316812.
± gives the standard deviation of the averaged measurements.

Columns and labels:
hTERT-HMEC = assay: percentage of EdU-negative (G0-arrested) nuclei per well, 72 h; higher = more G0 arrest; conditions: reference: sequence is the full UniProt precursor, the tested protein was the secreted form or ectodomain
MCF7 = assay: as above; conditions: reference: sequence is the full UniProt precursor, the tested protein was the secreted form or ectodomain
[1] = protein concentration 0.0225 µM
[2] = protein concentration 0.01975 µM
[3] = protein concentration 0.1975 µM
[4] = protein concentration 0.0085 µM
[5] = protein concentration 0.0075 µM
[6] = protein concentration 0.0292375 µM
[7] = protein concentration 0.292375 µM
[8] = protein concentration 0.00771429 µM
[9] = protein concentration 0.0771429 µM
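Note: secreted proteins added to cultured cells, EdU pulse at the end, nuclei found by Hoechst imaging, EdU status from nuclear versus surrounding ring intensity ratio, PBS as neutral control.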

MVLAQGLLSMALLALCWERSLAGAEETIPLQTLRCYNDYTSHITCRWADTQDAQRLVNVTLIRRVNEDLLEPVSCDLSDDMPWSACPHPRCVPRRCVIPCQSFVVTDVDYFSFQPDRPLGTRLTVTLTQHVQPPEPRDLQISTDQDHFLLTWSVALGSPQSHWLSPGDLEFEVVYKRLQDSWEDAAILLSNTSQATLGPEHLMPSSTYVARVRTRLAPGSRLSGRPSKWSPEVCWDSQPGDEAQPQNLECFFDGAAVLSCSWEVRKEVASSVSFGLFYKPSPDAGEEECSPVLREGLGSLHTRHHCQIPVPDPATHGQYIVSVQPRRAEKHIKSSVNIQMAPPSLNVTKDGDSYSLRWETMKMRYEHIDHTFEIQYRKDTATWKDSKTETLQNAHSMALPALEPSTRYWARVRVRTSRTGYNGIWSEWSEARSWDTESVLPMWVLALIVIFLTIAVLLALRFCGIYGYRLRRKWEEKIPNPSKSHLFQNGSAELWPPGSMSAFTSGSPPHQGPWGSRFPELEGVFPVGFGDSEVSPLTIEDPKHVCDPPSGPDTTPAASDLPTEQPPSPQPGPPAASHTPEKQASSFDFNGPYLGPPHSRSLPDILGQPEPPQEGGSQKSPPPGSLEYLCLPAGGQVQLVPLAQAMGPGQAVEVERRPSQGAAGSPSLESGGGPAPPALGPRVGGQDQKDSPVAIPMSSGDTEDPGVASGYVSSADLVFTPNSGASSVSLVPSLGLPSDQTPSLCPGLASGPPGAPGPVKSGFEGYVELPPIEGRSPRSPRNNPVPPEAKSPVLNPGERPADVSPTSPQPEGLLVLQQVGDYCFLPGLGPGPLSLRSKPSSPGPGPEIKNLDQAFQVKKPPGQAVPQVPVIQLFKALKQQDYLSLPPWEVNKPGEVC
percentage of EdU-negative (hTERT-HMEC; [1]): 4.92 ± 0.4% | percentage of EdU-negative (hTERT-HMEC; protein concentration 0.225 µM): 8.11 ± 1.6% | percentage of EdU-negative (MCF7; [1]): 23.9 ± 0.89% | percentage of EdU-negative (MCF7; protein concentration 0.225 µM): 26.4 ± 2.5%

MWGLLLALAAFAPAVGPALGAPRNSVLGLAQPGTTKVPGSTPALHSSPAQPPAETANGTSEQHVRIRVIKKKKVIMKKRKKLTLTRPTPLVTAGPLVTPTPAGTLDPAEKQETGCPPLGLESLRVSDSRLEASSSQSFGLGPHRGRLNIQSGLEDGDLYDGAWCAEEQDADPWFQVDAGHPTRFSGVITQGRNSVWRYDWVTSYKVQFSNDSRTWWGSRNHSSGMDAVFPANSDPETPVLNLLPEPQVARFIRLLPQTWLQGGAPCLRAEILACPVSDPNDLFLEAPASGSSDPLDFQHHNYKAMRKLMKQVQEQCPNITRIYSIGKSYQGLKLYVMEMSDKPGEHELGEPEVRYVAGMHGNEALGRELLLLLMQFLCHEFLRGNPRVTRLLSEMRIHLLPSMNPDGYEIAYHRGSELVGWAEGRWNNQSIDLNHNFADLNTPLWEAQDDGKVPHIVPNHHLPLPTYYTLPNATVAPETRAVIKWMKRIPFVLSANLHGGELVVSYPFDMTRTPWAARELTPTPDDAVFRWLSTVYAGSNLAMQDTSRRPCHSQDFSVHGNIINGADWHTVPGSMNDFSYLHTNCFEVTVELSCDKFPHENELPQEWENNKDALLTYLEQVRMGIAGVVRDKDTELGIADAVIAVDGINHDVTTAWGGDYWRLLTPGDYMVTASAEGYHSVTRNCRVTFEEGPFPCNFVLTKTPKQRLRELLAAGAKVPPDLRRRLERLRGQKD [Q96SM3]
percentage of EdU-negative (hTERT-HMEC; [2]): 5.64 ± 1.2% | percentage of EdU-negative (hTERT-HMEC; [3]): 5.93 ± 0.071% | percentage of EdU-negative (MCF7; [2]): 26.1 ± 3.2% | percentage of EdU-negative (MCF7; [3]): 28.5 ± 1.1%

MRALEGPGLSLLCLVLALPALLPVPAVRGVAETPTYPWRDAETGERLVCAQCPPGTFVQRPCRRDSPTTCGPCPPRHYTQFWNYLERCRYCNVLCGEREEEARACHATHNRACRCRTGFFAHAGFCLEHASCPPGAGVIAPGTPSQNTQCQPCPPGTFSASSSSSEQCQPHRNCTALGLALNVPGSSSHDTLCTSCTGFPLSTRVPGAEECERAVIDFVAFQDISIKRLQRLLQALEAPEGWGPTPRAGRAALQLKLRRRLTELLGAQDGALLVRLLQALRVARMPGLERSVRERFLPVH
percentage of EdU-negative (hTERT-HMEC; [4]): 4.68 ± 0.12% | percentage of EdU-negative (hTERT-HMEC; protein concentration 0.085 µM): 8.46 ± 1.8% | percentage of EdU-negative (MCF7; [4]): 22.9 ± 1.3% | percentage of EdU-negative (MCF7; protein concentration 0.085 µM): 27.9 ± 2.1%

MKMRRYKLFLMFCMAGLCLISFLHFFKTLSYVTFPRELASLSPNLVSSFFWNNAPVTPQASPEPGGPDLLRTPLYSHSPLLQPLPPSKAAEELHRVDLVLPEDTTEYFVRTKAGGVCFKPGTKMLERPPPGRPEEKPEGANGSSARRPPRYLLSARERTGGRGARRKWVECVCLPGWHGPSCGVPTVVQYSNLPTKERLVPREVPRRVINAINVNHEFDLLDVRFHELGDVVDAFVVCESNFTAYGEPRPLKFREMLTNGTFEYIRHKVLYVFLDHFPPGGRQDGWIADDYLRTFLTQDGVSRLRNLRPDDVFIIDDADEIPARDGVLFLKLYDGWTEPFAFHMRKSLYGFFWKQPGTLEVVSGCTVDMLQAVYGLDGIRLRRRQYYTMPNFRQYENRTGHILVQWSLGSPLHFAGWHCSWCFTPEGIYFKLVSAQNGDFPRWGDYEDKRDLNYIRGLIRTGGWFDGTQQEYPPADPSEHMYAPKYLLKNYDRFHYLLDNPYQEPRSTAAGGWRHRGPEGRPPARGKLDEAEV
percentage of EdU-negative (hTERT-HMEC; [5]): 5.484 ± 0.037% | percentage of EdU-negative (hTERT-HMEC; protein concentration 0.075 µM): 8.45 ± 1.1% | percentage of EdU-negative (MCF7; [5]): 24.8 ± 2.6% | percentage of EdU-negative (MCF7; protein concentration 0.075 µM): 29.1 ± 1.5%

MAMRLILFFGALFGHIYCLETFVGDQVLEIVPSNEEQIKNLLQLEAQEHLQLDFWKSPTTPGETAHVRVPFVNVQAVKVFLESQGIAYSIMIEDVQVLLDKENEEMLFNRRRERSGNFNFGAYHTLEEISQEMDNLVAEHPGLVSKVNIGSSFENRPMNVLKFSTGGDKPAIWLDAGIHAREWVTQATALWTANKIVSDYGKDPSITSILDALDIFLLPVTNPDGYVFSQTKNRMWRKTRSKVSGSLCVGVDPNRNWDAGFGGPGASSNPCSDSYHGPSANSEVEVKSIVDFIKSHGKVKAFITLHSYSQLLMFPYGYKCTKLDDFDELSEVAQKAAQSLRSLHGTKYKVGPICSVIYQASGGSIDWSYDYGIKYSFAFELRDTGRYGFLLPARQILPTAEETWLGLKAIMEHVRDHPY
percentage of EdU-negative (hTERT-HMEC; [1]): 6 ± 1% | percentage of EdU-negative (hTERT-HMEC; protein concentration 0.225 µM): 5.16 ± 0.28% | percentage of EdU-negative (MCF7; [1]): 25.6 ± 2.3% | percentage of EdU-negative (MCF7; protein concentration 0.225 µM): 24.9 ± 0.71%

MDLWQLLLTLALAGSSDAFSGSEATAAILSRAPWSLQSVNPGLKTNSSKEPKFTKCRSPERETFSCHWTDEVHHGTKNLGPIQLFYTRRNTQEWTQEWKECPDYVSAGENSCYFNSSFTSIWIPYCIKLTSNGGTVDEKCFSVDEIVQPDPPIALNWTLLNVSLTGIHADIQVRWEAPRNADIQKGWMVLEYELQYKEVNETKWKMMDPILTTSVPVYSLKVDKEYEVRVRSKQRNSGNYGEFSEVLYVTLPQMSQFTCEEDFYFPWLLIIIFGIFGLTVMLFVFLFSKQQRIKMLILPPVPVPKIKGIDPDLLKEGKLEEVNTILAIHDSYKPEFHSDDSWVEFIELDIDEPDEKTEESDTDRLLSSDHEKSHSNLGVKDGDSGRTSCCEPDILETDFNANDIHEGTSEVAQPQRLKGEADLLCLDQKNQNNSPYHDACPATQQPSVIQAEKNKPQPLPTEGAESTHQAAHIQLSNPSSLSNIDFYAQVSDITPAGSVVLSPGQKNKAGMSQCDMHPEMVSLCQENFLMDNAYFCEADAKKCIPVAPHIKVESHIQPSLNQEDIYITTESLTTAAGRPGTGEHVPGSEMPVPDYTSIHIVQSPQGLILNATALPLPDKEFLSSCGYVSTDQLNKIMP
percentage of EdU-negative (hTERT-HMEC; [6]): 4.42 ± 0.8% | percentage of EdU-negative (hTERT-HMEC; [7]): 6.44 ± 1.3% | percentage of EdU-negative (MCF7; [6]): 25 ± 3.3% | percentage of EdU-negative (MCF7; [7]): 24.5 ± 1.6%

MALDYLLLLLLASAVAAMEETLMDTRTATAELGWTANPASGWEEVSGYDENLNTIRTYQVCNVFEPNQNNWLLTTFINRRGAHRIYTEMRFTVRDCSSLPNVPGSCKETFNLYYYETDSVIATKKSAFWSEAPYLKVDTIAADESFSQVDFGGRLMKVNTEVRSFGPLTRNGFYLAFQDYGACMSLLSVRVFFKKCPSIVQNFAVFPETMTGAESTSLVIARGTCIPNAEEVDVPIKLYCNGDGEWMVPIGRCTCKPGYEPENSVACKACPAGTFKASQEAEGCSHCPSNSRSPAEASPICTCRTGYYRADFDPPEVACTSVPSGPRNVISIVNETSIILEWHPPRETGGRDDVTYNIICKKCRADRRSCSRCDDNVEFVPRQLGLTECRVSISSLWAHTPYTFDIQAINGVSSKSPFPPQHVSVNITTNQAAPSTVPIMHQVSATMRSITLSWPQPEQPNGIILDYEIRYYEKEHNEFNSSMARSQTNTARIDGLRPGMVYVVQVRARTVAGYGKFSGKMCFQTLTDDDYKSELREQLPLIAGSAAAGVVFVVSLVAISIVCSRKRAYSKEAVYSDKLQHYSTGRGSPGMKIYIDPFTYEDPNEAVREFAKEIDVSFVKIEEVIGAGEFGEVYKGRLKLPGKREIYVAIKTLKAGYSEKQRRDFLSEASIMGQFDHPNIIRLEGVVTKSRPVMIITEFMENGALDSFLRQNDGQFTVIQLVGMLRGIAAGMKYLAEMNYVHRDLAARNILVNSNLVCKVSDFGLSRYLQDDTSDPTYTSSLGGKIPVRWTAPEAIAYRKFTSASDVWSYGIVMWEVMSFGERPYWDMSNQDVINAIEQDYRLPPPMDCPAALHQLMLDCWQKDRNSRPRFAEIVNTLDKMIRNPASLKTVATITAVPSQPLLDRSIPDFTAFTTVDDWLSAIKMVQYRDSFLTAGFTSLQLVTQMTSEDLLRIGITLAGHQKKILNSIHSMRVQISQSPTAMA
percentage of EdU-negative (hTERT-HMEC; [8]): 4.82 ± 0.12% | percentage of EdU-negative (hTERT-HMEC; [9]): 5.86 ± 0.98% | percentage of EdU-negative (MCF7; [8]): 26.7 ± 1.5% | percentage of EdU-negative (MCF7; [9]): 23.4 ± 1.5%
